Reference: paper PMC4087149

Tests used:
[1] = cell lysate anti-myc blot; settings: glycan lost; control: wild type
[2] = in-gel HA digestion, alcian blue staining; settings: glycan lost; control: wild type

Row | Protein | expression_or_secretion [1] | enzymatic_activity [2]
1 | hyaluronidase1 (HYAL1): N99Q (protein) parent chain: MAAHLLPICALFLTLLDMAQGFRGPLLPNRPFTTVWNANTQWCLERHGVDVDVSVFDVVANPGQTFRGPDMTIFYSSQLGTYPYYTPTGEPVFGGLPQNASLIAHLARTFQDILAAIPAPDFSGLAVIDWEAWRPRWAFNWDTKDIYRQRSRALVQAQHPDWPAPQVEAVAQDQFQGAARAWMAGTLQLGRALRPRGLWGFYGFPDCYNYDFLSPNYTGQCPSGIRAQNDQLGWLWGQSRALYPSIYMPAVLEGTGKSQMYVQHRVAEAFRVAVAAGDPNLPVLPYVQIFYDTTNHFLPLDELEHSLGESAAQGAAGVVLWVSWENTRTKESCQAIKEYMDTTLGPFILNVTSGALLCSQALCSGHGRCVRRTSHPKALLLLNPASFSIQLTPGGGPLSLRGALSLEDQAQMAVEFKCRCYPGWQAPWCERKSMW | decreases | 
2 | hyaluronidase1 (HYAL1): N350Q (protein) parent chain: MAAHLLPICALFLTLLDMAQGFRGPLLPNRPFTTVWNANTQWCLERHGVDVDVSVFDVVANPGQTFRGPDMTIFYSSQLGTYPYYTPTGEPVFGGLPQNASLIAHLARTFQDILAAIPAPDFSGLAVIDWEAWRPRWAFNWDTKDIYRQRSRALVQAQHPDWPAPQVEAVAQDQFQGAARAWMAGTLQLGRALRPRGLWGFYGFPDCYNYDFLSPNYTGQCPSGIRAQNDQLGWLWGQSRALYPSIYMPAVLEGTGKSQMYVQHRVAEAFRVAVAAGDPNLPVLPYVQIFYDTTNHFLPLDELEHSLGESAAQGAAGVVLWVSWENTRTKESCQAIKEYMDTTLGPFILNVTSGALLCSQALCSGHGRCVRRTSHPKALLLLNPASFSIQLTPGGGPLSLRGALSLEDQAQMAVEFKCRCYPGWQAPWCERKSMW | decreases | decreases
3 | hyaluronidase1 (HYAL1): N216Q (protein) parent chain: MAAHLLPICALFLTLLDMAQGFRGPLLPNRPFTTVWNANTQWCLERHGVDVDVSVFDVVANPGQTFRGPDMTIFYSSQLGTYPYYTPTGEPVFGGLPQNASLIAHLARTFQDILAAIPAPDFSGLAVIDWEAWRPRWAFNWDTKDIYRQRSRALVQAQHPDWPAPQVEAVAQDQFQGAARAWMAGTLQLGRALRPRGLWGFYGFPDCYNYDFLSPNYTGQCPSGIRAQNDQLGWLWGQSRALYPSIYMPAVLEGTGKSQMYVQHRVAEAFRVAVAAGDPNLPVLPYVQIFYDTTNHFLPLDELEHSLGESAAQGAAGVVLWVSWENTRTKESCQAIKEYMDTTLGPFILNVTSGALLCSQALCSGHGRCVRRTSHPKALLLLNPASFSIQLTPGGGPLSLRGALSLEDQAQMAVEFKCRCYPGWQAPWCERKSMW | decreases | decreases
